Data as given in patent publication US20220135640A1, “CORTISTATIN OR AN ANALOGUE THEREOF AS A PHARMACEUTICALLY ACTIVE AGENT IN LATENT FORM” (CONSEJO SUPERIOR DE INVESTIGACIONES CIENTIFICAS (CSIC), priority 2019, published 2022).
Bridge positions count the residues as written; N and C are the ends. Ends that are not written are not given here.

Key:
[1] = tested on: LAP-GS-MMP-GS-CST-29r fusion protein (SP-LAP-L1-MMP-L2-CST29r)
[2] = Stability of cortistatin-29, free versus in LAP-CST, at room temperature; format: physicochemical
Experimental: On the other hand, whereas the amount of recombinant cortistatin-29 decreased in a 82% after 15 minutes at room temperature, the amount of cortistatin-29 in LAP-CST remains stable for at least 7 days.

sstrt2 receptor = sstrt2 receptor (Homo sapiens, UniProt P30874); conditions: cited from earlier work
sstr1 = sstr1 (Homo sapiens, UniProt P30872); conditions: cited from earlier work
sstr4 = sstr4 (Homo sapiens, UniProt P31391); conditions: cited from earlier work
[3] = tested on: somatostatin receptors, sstr1-sstr5; conditions: cited from earlier work
[4] = cited from earlier work
recombinant MMP1 = target: T1, recombinant MMP1 (Homo sapiens, UniProt P03956); assay: Treatment of LAP-CST supernatants with recombinant MMP1, Cortistatin-29 recovered; format: biochemical; conditions: 48 h supernatants treated with recombinant MMP1; diminished from 80 ng; 12 hours later
T1 sequence (P03956 100-469): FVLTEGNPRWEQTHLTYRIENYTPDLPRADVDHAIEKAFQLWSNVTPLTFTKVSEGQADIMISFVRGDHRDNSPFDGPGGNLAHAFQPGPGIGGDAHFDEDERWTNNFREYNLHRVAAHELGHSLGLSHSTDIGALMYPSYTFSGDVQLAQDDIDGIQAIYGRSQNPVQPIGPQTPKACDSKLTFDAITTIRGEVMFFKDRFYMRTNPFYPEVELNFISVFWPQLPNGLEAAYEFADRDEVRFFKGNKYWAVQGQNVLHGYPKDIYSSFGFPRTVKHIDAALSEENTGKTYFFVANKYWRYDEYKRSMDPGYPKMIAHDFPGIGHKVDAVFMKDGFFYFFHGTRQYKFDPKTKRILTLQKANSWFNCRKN
Source text: The amount of LAP-MMP-CST-29r peptide in culture supernatants was indirectly determined by measuring the concentration of rat Cortistatin-29 by using a specific ELISA (Phoenix Pharmaceuticals).

[5] = tested on: liver fibrosis induced by CCl4; assay: CCl4-induced liver fibrosis; format: in vivo, C57Bl/6 mice; conditions: systemic, once a week, 100 pg/mouse, 6 weeks
Experimental: FIG. 4 is a quantification of liver fibrosis and tissue damage using Image J program and scored using an established clinical ISHAK index from 0 to 4 in a blinded fashion.
Liver fibrosis was induced by intraperitoneal injection of CCl4 (3:9 in olive oil, 40 μl/mouse, every three days) in C57Bl/6 mice. Mice were treated three times a week with cortistatin (500 ng/mouse) or once a week with LAP-CST (100 pg/mouse). After 6 weeks, liver was dissected and processed for histological analysis using Mason Trichromic staining and Sirius Red staining. Liver fibrosis and tissue damage were quantified using Image J program and scored using an established clinical ISHAK index from 0 to 4 in a blinded fashion (FIG. 4).

[6] = tested on: bleomycin-induced lung fibrosis; assay: Bleomycin-induced lung fibrosis, comparison of LAP constructs (Example 5); format: in vivo, C57Bl/6 mice; conditions: nasal inhalation, once a week, 20 pg, 18 days
Experimental: FIG. 5. Lung fibrosis and tissue damage were quantified using Image J program and scored using an established clinical index from 0 to 4 in a blinded fashion. Mortality caused by fibrosis is shown in this figure.
Lung fibrosis was induced by intratracheal injection of bleomycin (50 μg/kg body weight, dissolved in 50 μl of saline) in C57Bl/6 mice. Mice were treated once a week by nasal inhalation of 20 pg of empty LAP (A), LAP containing only cortistatin (B), LAP containing cortistatin and linkers LAP-L1L2-CST but not MMP site (C), or LAP containing cortistatin, linkers and MMP site (D). After 18 days, lungs were dissected and processed for histological analysis using Mason Trichromic staining and Sirius Red staining. Lung fibrosis and tissue damage were quantified using Image J program and scored using an established clinical index from 0 to 4 in a blinded fashion.

[7] = tested on: bleomycin-induced lung fibrosis; assay: Bleomycin-induced lung fibrosis, nasal inhalation (Example 3); format: in vivo, C57Bl/6 mice; conditions: once a week, 20 pg
Experimental: (§1) FIG. 3 illustrates the experiments performed wherein lung fibrosis was induced by intratracheal injection of bleomycin (50 μg/kg body weight, dissolved in 50 μl of saline) in C57Bl/6 mice. Mice were treated by nasal inhalation of saline (group bleomycin+saline), cortistatin (group belomycin+CST, 3 times per week, 10 ng each time), or LAP-CST (Bleomycin+LAP-CST, once a week, 20 pg). After 18 days, lungs were dissected and processed for histological analysis using Mason Trichromic staining and Sirius Red staining. Lung fibrosis and tissue damage were quantified using Image J program and scored using an established clinical index from 0 to 4 in a blinded fashion. Mortality caused by fibrosis is shown in this figure.
as §1, with “Lung” for “FIG. 3 illustrates the experiments performed wherein lung”, “fashion.” for “fashion. Mortality caused by fibrosis is shown in this figure.”

[8] = tested on: dermal fibrosis induced by bleomycin; assay: Bleomycin-induced dermal sclerodermia, local treatment; format: in vivo, C57Bl/6 mice
Experimental: FIG. 2 illustrates the experiments performed wherein sclerodermia was induced by intradermal injection of bleomycin (3 times per week, during four weeks) in an area of […] in the dorsal skin of C57Bl/6 mice. Mice were locally treated around the lesion area with saline (group bleomycin), with cortistatin (group belomycin+CST, 3 time per week, 10 ng each time), with empty LAP vector (Bleomycin+LAP, once a week, 20 pg) or with LAP-CST (Bleomycin+LAP-CST, once a week, 20 pg). Naïve animals without bleomycin were used as basal control reference. After four weeks, lesioned skin area was dissected and processed for histological analysis using Mason Trichromic staining. Skin thickness (from epidermis to hypodermis) was quantified using Image J program. Fibrotic deposits in skin are stained in blue in sections. […] Skin thickness (from epidermis to hypodermis) was quantified using Image J program. […]

sstr1, sequence (P30872 whole entry): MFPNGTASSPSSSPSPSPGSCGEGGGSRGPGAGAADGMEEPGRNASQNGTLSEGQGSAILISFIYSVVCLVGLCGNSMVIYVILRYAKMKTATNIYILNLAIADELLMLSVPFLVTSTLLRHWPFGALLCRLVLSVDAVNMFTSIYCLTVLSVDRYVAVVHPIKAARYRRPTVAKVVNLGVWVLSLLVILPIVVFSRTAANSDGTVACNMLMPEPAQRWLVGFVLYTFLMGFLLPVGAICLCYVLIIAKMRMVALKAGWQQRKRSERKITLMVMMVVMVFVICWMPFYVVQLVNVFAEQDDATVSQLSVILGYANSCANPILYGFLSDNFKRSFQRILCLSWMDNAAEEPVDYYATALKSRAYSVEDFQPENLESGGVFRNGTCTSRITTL
sstr4, sequence (P31391 whole entry): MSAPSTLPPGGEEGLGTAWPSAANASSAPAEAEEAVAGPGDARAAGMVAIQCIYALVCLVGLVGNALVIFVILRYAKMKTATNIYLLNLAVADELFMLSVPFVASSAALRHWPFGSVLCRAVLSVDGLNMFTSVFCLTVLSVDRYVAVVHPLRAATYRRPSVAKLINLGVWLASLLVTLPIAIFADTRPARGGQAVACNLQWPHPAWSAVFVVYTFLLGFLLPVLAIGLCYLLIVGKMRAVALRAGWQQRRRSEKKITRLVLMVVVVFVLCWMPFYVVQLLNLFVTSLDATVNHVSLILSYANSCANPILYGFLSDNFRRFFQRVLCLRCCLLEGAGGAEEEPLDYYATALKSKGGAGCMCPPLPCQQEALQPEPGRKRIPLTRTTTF
sstrt2 receptor, sequence (P30874 whole entry): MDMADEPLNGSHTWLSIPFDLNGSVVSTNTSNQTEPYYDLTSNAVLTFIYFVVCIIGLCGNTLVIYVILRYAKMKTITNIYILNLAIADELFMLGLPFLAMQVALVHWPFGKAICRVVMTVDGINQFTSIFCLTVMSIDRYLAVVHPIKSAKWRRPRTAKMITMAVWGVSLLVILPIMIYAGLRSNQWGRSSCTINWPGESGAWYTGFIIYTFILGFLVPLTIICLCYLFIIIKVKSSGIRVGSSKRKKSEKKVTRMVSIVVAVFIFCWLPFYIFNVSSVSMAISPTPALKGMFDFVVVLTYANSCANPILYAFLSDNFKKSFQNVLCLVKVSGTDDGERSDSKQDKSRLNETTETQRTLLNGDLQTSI

## recombinant MMP1
[1]
  amount of Cortistatin-29 (indirectly measuring LAP-CST) recovered from the culture, 12 hours after MMP1 treatment: diminished from 80 ng to 20 ng, 12 hours later
  amount of Cortistatin-29 (indirectly measuring LAP-CST) recovered from the culture, before MMP1 treatment: diminished from 80 ng to 20 ng, 12 hours later

## cortistatin-29: rat sequence of cortistatin, 29 amino acids (GenBank: EDL81150.1) (QERPPLQQPPHRDKKPCKNFFWKTFSSCK-OH; disulfide 17-28 (inferred); ends not checked; UniProt Q62949 84-112, looked up) [reference compound]
[2]; after 15 minutes at room temperature
  decrease of the amount of cortistatin-29: 82%

## C[C@@H](O)[C@@H]1NC(=O)[C@H](CCCCN)NC(=O)[C@@H](Cc2c[nH]c3ccccc23)NC(=O)[C@H](Cc2ccccc2)NC(=O)[C@@H](NC(=O)[C@H](N)Cc2ccccc2)CSSC[C@@H](C(=O)N[C@H](CO)[C@@H](C)O)NC1=O [octreotide]
sstrt2 receptor
  binding to the sstrt2 receptor: keeps binding
sstr1
  affinity to the sstr1 receptor: completely loses its affinity
sstr4
  affinity to the sstr4 receptor: completely loses its affinity

## cortistatin
[3]
  affinity to somatostatin receptors: nanomolar affinity
[4]
  blood half-life: a few minutes

B1: LAP-CST: fusion protein of LAP of TGFβ-1 (Met1-Ser273), MMP cleavage site PLGLWA flanked by GGGGS linkers, and rat cortistatin-29 (protein)
chain: MPPSGLRLLPLLLPLLWLLVLTPGRPAAGLSTCKTIDMELVKRKRIEAIRGQILSKLRLASPPSQGEVPPGPLPEAVLALYNSTRDRVAGESAEPEPEPEADYYAKEVTRVLMVETHNEIYDKFKQSTHSIYMFFNTSELREAVPEPVLLSRAELRLLRLKLKVEQHVELYQKYSNNSWRYLSNRLLAPSDSPEWLSFDVTGVVRQWLSRGGEIEGFRLSAHCSCDSRDNTLQVDINGFTTGRRGDLATIHGMNRPFLLLMATPLERAQHLQSEFGGGGSPLGLWAGGGGSAAAQERPPLQQPPHRDKKPCKNFFWKTFSSCK
modifications: Fusion peptide
Recombinant MMP1
  amount of Cortistatin-29 (indirectly measuring LAP-CST) recovered from the culture: 20 ng
[5]; mortality of 50% in untreated mice
  survival: 100%
[5]; similar to cortistatin 500 ng/mouse three times a week
  liver fibrotic area: significantly reduced liver fibrotic area
[6]
  protection versus bleomycin-induced lung fibrosis and mortality: protected
[2]; cortistatin-29 in LAP-CST
  time the amount of cortistatin-29 remains stable: at least 7 days
[7]; 18 days, as effective as cortistatin 3 times per week at 500-fold higher dose
  lung fibrosis and damage: significantly reduced lung fibrosis and damage
[7]; bleomycin alone causes 80% of mortality
  survival: dramatically increased survival
[8]; local, once a week, 20 pg, four weeks, compared with LAP alone, as effective as cortistatin 10 ng 3 times per week
  dermal fibrosis (skin thickness, Mason Trichromic staining): effective in reducing dermal fibrosis
[8]; weekly 20 pg versus cortistatin 3 times per week at 500-fold higher concentration
  effectiveness of a single injection relative to recombinant cortistatin: at least 1,500 times
